B1: BMPRII ectodomain, human IgG1‐Fc fusion (R&D Systems #811‐BR‐100/CF) (Fc fusion, UniProt Q13873 27-150, looked up)
chain: SQNQERLCAFKDPYQQDLGIGESRISHENGTILCSKGSTCYGLWEKSKGDINLVKQGCWSHIGDPQECHYEECVVTTTPPSIQNGTYRFCCCSTDLCNVNFTENFPPPDTTPLSPPHSFNRDET
notes: Bone morphogenetic protein receptor type II (BMPRII), ectodomain; 'human' in the sentence may qualify the IgG1 Fc only; also called BMP type II receptor; source: bought: R&D Systems (#811‐BR‐100/CF)
B2: processed BMP‐10 CPLX (tag‐free, HEK293) (complex, human)
chain 1: SPIMNLEQSPLEEDMSLFGDVFSEQDGVDFNTLLQSMKDEFLKTLNLSDIPTQDSAKVDPPEYMLELYNKFATDRTSMPSANIIRSFKNEDLFSQPVSFNGLRKYPLLFNVSIPHHEEVIMAELRLYTLVQRDRMIYDGVDRKITIFEVLESKGDNEGERNMLVLVSGEIYGTNSEWETFDVTDAIRRWQKSGSSTHQLEVHIESKHDEAEDASSGRLEIDTSAQNKHNPLLIVFSDDQSSDKERKEELNEMISHEQLPELDNLGLDSFSSGPGEEALLQMRSNIIYDSTARIRR
chain 2: NAKGNYCKRTPLYIDFKEIGWDSWIIAPPGYEAYECRGVCNYPLAEHLTPTKHAIIQALVHLKNSQKASKACCVPTKLEPISILYLDKGVVTYKFKYEGMAVSECGCR
modifications: N‐glycosylation
notes: Bone morphogenetic protein 10, human, prodomain (PD) up to the endogenous PPC cleavage site RIRR; calculated molecular weight without glycans 34.6 kDa; secreted through the BM40 signal peptide of the vector; Bone morphogenetic protein 10, human, growth factor (GF) released by PPC cleavage after RIRR; calculated molecular weight of the monomer 12.2 kDa; The SPR methods say only 'processed BMP‐10 …

Assays:
[1] = target: B2; test: SPR; receptor ectodomains immobilised at 500 or 800 RUs on a CM5 chip by amine coupling; analytes 0 to 80 nM, 1:2 serial dilutions, 1× HBS‐EP; 1:1 model with mass transfer; apparent KD = kd/ka; three independent experiments; settings: both partners purified
[2] = target: T1, ENG ectodomain (R&D Systems #1097‐EN‐025/CF) (human, UniProt P17813 26-586); test: as above; settings: both partners purified
T1 construct: Endoglin (ENG), ectodomain; The methods read 'the human IgG1‐Fc‐fusion ectodomains of BMPRII, ALK‐1 as well as ENG'; also called endoglin; co‐receptor ENG; source: bought: R&D Systems (#1097‐EN‐025/CF); not shown: Fc (human IgG1)
T1 sequence (looked up): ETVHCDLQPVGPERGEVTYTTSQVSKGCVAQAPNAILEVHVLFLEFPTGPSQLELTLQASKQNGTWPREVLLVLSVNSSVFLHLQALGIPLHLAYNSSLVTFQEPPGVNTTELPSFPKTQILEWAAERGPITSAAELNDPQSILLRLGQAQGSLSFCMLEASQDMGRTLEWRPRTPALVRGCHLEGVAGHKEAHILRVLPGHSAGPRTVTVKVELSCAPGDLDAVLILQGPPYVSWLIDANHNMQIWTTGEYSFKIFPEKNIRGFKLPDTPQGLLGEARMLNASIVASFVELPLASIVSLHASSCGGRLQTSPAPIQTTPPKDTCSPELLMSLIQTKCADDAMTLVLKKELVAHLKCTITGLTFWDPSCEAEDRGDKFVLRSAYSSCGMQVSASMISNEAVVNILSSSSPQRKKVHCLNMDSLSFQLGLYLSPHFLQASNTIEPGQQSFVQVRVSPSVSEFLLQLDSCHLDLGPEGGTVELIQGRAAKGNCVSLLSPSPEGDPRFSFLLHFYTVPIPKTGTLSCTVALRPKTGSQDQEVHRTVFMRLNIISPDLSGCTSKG

BMP‐10 PD (E. coli) = target: T2, BMP‐10 PD (E. coli) (human, UniProt O95393 22-316); test: SPR; PDs of BMP‐9, BMP‐10 and N‐10/C‐9 fusion PD immobilised at 450 RUs on a CM5 chip by amine coupling; BMP‐10 GF 0 to 80 nM, 1:2 serial dilutions, 1× HBS‐EP; 1:1 model with mass transfer; apparent KD = kd/ka; settings: both partners purified
T2 construct: also called BMP‐10 prodomain; E. coli‐derived BMP‐10 PD; source: E. coli BL21‐CodonPlus, purified (Ni‐NTA)
T2 sequence (looked up): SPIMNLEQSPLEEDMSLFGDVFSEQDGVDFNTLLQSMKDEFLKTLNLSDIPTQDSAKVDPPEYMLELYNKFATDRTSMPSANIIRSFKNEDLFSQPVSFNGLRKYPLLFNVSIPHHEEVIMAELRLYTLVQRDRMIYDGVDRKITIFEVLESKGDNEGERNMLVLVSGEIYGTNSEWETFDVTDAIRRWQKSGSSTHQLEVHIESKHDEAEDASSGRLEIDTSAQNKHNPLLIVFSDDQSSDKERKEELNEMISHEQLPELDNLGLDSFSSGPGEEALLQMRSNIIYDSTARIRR

BMP‐9 PD (E. coli) = target: T3, BMP‐9 PD (E. coli) (human, UniProt Q9UK05 23-319); test: as above; settings: both partners purified
T3 construct: also called BMP‐9 prodomain; source: E. coli BL21‐CodonPlus, purified (Ni‐NTA)
T3 sequence (looked up): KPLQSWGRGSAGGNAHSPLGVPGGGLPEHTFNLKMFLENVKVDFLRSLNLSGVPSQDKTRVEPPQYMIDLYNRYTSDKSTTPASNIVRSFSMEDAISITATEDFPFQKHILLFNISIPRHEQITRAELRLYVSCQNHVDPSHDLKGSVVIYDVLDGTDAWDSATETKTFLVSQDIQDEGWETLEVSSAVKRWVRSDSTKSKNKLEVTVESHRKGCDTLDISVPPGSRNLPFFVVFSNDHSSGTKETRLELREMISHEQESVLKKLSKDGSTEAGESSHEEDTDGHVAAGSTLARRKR

[3] = target: B1; test: SPR; receptor ectodomains immobilised at 500 or 800 RUs on a CM5 chip by amine coupling; analytes 0 to 80 nM, 1:2 serial dilutions, 1× HBS‐EP; 1:1 model with mass transfer; apparent KD = kd/ka; three independent experiments; settings: both partners purified
[4] = target: T1, ENG ectodomain (R&D Systems …); test: as above; settings: both partners purified; remark: listed apart in the source
[5] = target: the molecule itself; test: AUC; sedimentation velocity of elution fractions after SEC/MALS (S200 Increase, 1× PBS), 54 000 rpm, 280 nm, c(s) fit; PD dimer

**Q.** With B1 as the binder, how does the Kd [1] read?
**A.** Its Kd is 0.8 ± 0.1 nM.

**Q.** And the koff [1]?
**A.** Its koff is 0.00079 s⁻¹.

**Q.** What about the kon [1] of the same binder?
**A.** The kon was 940000 M⁻¹ s⁻¹.

**Q.** Does B2 bind [2]?
**A.** Result: binds

B3: BMP‐10 GF (R&D Systems #2926‐BP‐025/CF) (ligand, human, UniProt O95393 317-424, looked up)
chain: NAKGNYCKRTPLYIDFKEIGWDSWIIAPPGYEAYECRGVCNYPLAEHLTPTKHAIIQALVHLKNSQKASKACCVPTKLEPISILYLDKGVVTYKFKYEGMAVSECGCR
notes: Bone morphogenetic protein 10, human, growth factor (GF) moiety that follows the PPC cleavage site RIRR; calculated molecular weight of the monomer 12.2 kDa, dimer 24.4 kDa; Disulfide-linked GF dimer; also called BMP‐10 growth factor; BMP‐10 GF dimer; source: bought: R&D Systems (#2926‐BP‐025/CF); called commercially available HEK293‐derived
**Q.** For B3, which Kd (BMP‐10 PD (E. coli)) is on record?
**A.** Its Kd is 5.2 ± 0.7 nM.

**Q.** And the koff (BMP‐10 PD (E. coli))?
**A.** Its koff is 0.0024 s⁻¹.

**Q.** And the kon (BMP‐10 PD (E. coli))?
**A.** Its kon is 500000 M⁻¹ s⁻¹.

**Q.** And the Kd (BMP‐9 PD (E. coli))?
**A.** The Kd was 10.4 ± 2.5 nM.

**Q.** What about the koff (BMP‐9 PD (E. coli)) of the same binder?
**A.** The koff was 0.0024 s⁻¹.

**Q.** What about the kon (BMP‐9 PD (E. coli)) of the same binder?
**A.** Its kon is 230000 M⁻¹ s⁻¹.

**Q.** What about the Kd [3] of the same binder?
**A.** The Kd was 2.6 ± 0.6 nM.

**Q.** And the koff [3]?
**A.** Its koff is 0.0017 s⁻¹.

**Q.** What about the kon [3] of the same binder?
**A.** The kon was 690000 M⁻¹ s⁻¹.

**Q.** What about the Kd [4] of the same binder?
**A.** Its Kd is 16.3 ± 2.9 nM.

**Q.** What about the koff [4] of the same binder?
**A.** Its koff is 0.008 s⁻¹.

**Q.** What about the kon [4] of the same binder?
**A.** Its kon is 490000 M⁻¹ s⁻¹.

B4: BMP‐10 PD (HEK293, from the processed BMP‐10 CPLX) (domain or fragment, human)
chain: SPIMNLEQSPLEEDMSLFGDVFSEQDGVDFNTLLQSMKDEFLKTLNLSDIPTQDSAKVDPPEYMLELYNKFATDRTSMPSANIIRSFKNEDLFSQPVSFNGLRKYPLLFNVSIPHHEEVIMAELRLYTLVQRDRMIYDGVDRKITIFEVLESKGDNEGERNMLVLVSGEIYGTNSEWETFDVTDAIRRWQKSGSSTHQLEVHIESKHDEAEDASSGRLEIDTSAQNKHNPLLIVFSDDQSSDKERKEELNEMISHEQLPELDNLGLDSFSSGPGEEALLQMRSNIIYDSTARIRR
modifications: N‐glycosylation
notes: Bone morphogenetic protein 10, human, prodomain (PD) up to the endogenous PPC cleavage site RIRR; band at 45 kDa, calculated molecular weight without glycans 34.6 kDa; The methods of SEC/MALS and AUC say only 'two fractions of BMP‐10'; also called separated BMP‐10 PD
**Q.** How did the “stoichiometry N” value [5] turn out when B4 was run?
**A.** The value was 2.

— PMC11806408, “Prodomain processing controls BMP‐10 bioactivity and targeting to fibrillin‐1 in latent conformation” (The FASEB Journal, 2025)
